In FireProtDB (doi:10.1111/j.1432-1033.1988.tb14214.x):

Settings: Bos taurus; pH 7.1; 25 °C; Urea; CD; PIPES 20 mM; reversible: yes; whole UniProt chain shown

B1: Protein S100-G wild type, P02633 (protein)
chain: MSAKKSPEELKGIFEKYAAKEGDPNQLSKEELKLLLQTEFPSLLKGPSTLDELFEELDKNGDGEVSFEEFQVLVKKISQ
denaturant m value: 0.91 kcal/mol/M
denaturant midpoint (higher = more stable): 5.2 M
unfolding free energy: 4.78 kcal/mol
